What all share (assay): cell-based or functional assay
Assay [1] deals with Sensor 1: NNano-SV2C-p25-CNano (human).
Assay [2] deals with In vivo assay construct: Nnano(1-159)-Firefly(Full length)-GGGGS-p25(FullLength)-Cnano(160-170) (Photinus pyralis; human).
Assay [3] addresses Sensor 2: NNano-p25-CNano (human).
For assay [4], the target named is Sensor 3: NNano-hVAMP1-CNano (human).

Chain of In vivo assay construct: Nnano(1-159)-Firefly(Full length)-GGGGS-p25(FullLength)-Cnano(160-170) (Photinus pyralis; human) (P08659 other isoform, or with tags, fused parts or gaps): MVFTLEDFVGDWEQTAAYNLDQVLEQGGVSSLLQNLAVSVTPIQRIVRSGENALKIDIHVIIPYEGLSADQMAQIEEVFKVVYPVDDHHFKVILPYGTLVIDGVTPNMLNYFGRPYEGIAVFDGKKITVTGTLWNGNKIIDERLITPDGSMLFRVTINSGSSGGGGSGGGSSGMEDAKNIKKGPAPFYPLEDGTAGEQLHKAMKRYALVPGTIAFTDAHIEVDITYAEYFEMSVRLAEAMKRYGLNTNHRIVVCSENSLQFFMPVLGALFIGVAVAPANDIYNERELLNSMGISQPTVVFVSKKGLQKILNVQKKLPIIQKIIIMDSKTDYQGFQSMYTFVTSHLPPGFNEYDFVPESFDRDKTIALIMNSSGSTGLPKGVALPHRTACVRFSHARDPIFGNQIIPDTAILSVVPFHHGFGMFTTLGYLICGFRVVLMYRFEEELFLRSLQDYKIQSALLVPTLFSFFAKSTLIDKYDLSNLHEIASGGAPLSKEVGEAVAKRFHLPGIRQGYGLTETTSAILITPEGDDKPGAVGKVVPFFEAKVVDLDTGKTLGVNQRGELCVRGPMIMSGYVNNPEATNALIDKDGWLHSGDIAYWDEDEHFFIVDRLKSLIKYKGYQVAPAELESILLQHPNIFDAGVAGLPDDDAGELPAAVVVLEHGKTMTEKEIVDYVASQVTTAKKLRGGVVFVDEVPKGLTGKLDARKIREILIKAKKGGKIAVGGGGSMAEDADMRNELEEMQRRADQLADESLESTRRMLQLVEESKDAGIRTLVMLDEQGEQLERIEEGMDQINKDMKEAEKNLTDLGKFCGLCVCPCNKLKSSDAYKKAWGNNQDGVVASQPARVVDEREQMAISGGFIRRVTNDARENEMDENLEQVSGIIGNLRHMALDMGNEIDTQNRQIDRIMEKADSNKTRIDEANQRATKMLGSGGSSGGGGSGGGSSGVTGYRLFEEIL

With “Botulinum neurotoxin A (BoNT/A) (from UniProt P0DPI0 2-1296) (enzyme)”, in assay [1], the EC50 (percentage of luminescence of NANOLUC luciferase, after 4 h at 37 C) is 9.73 pM; the EC50 (percentage of luminescence of NANOLUC luciferase, after 24 h at 37 C) was determined as 7.86 pM; the fold sensitivity (EC50) against the sensor without SV2C was determined as 5 fold. The EC50 (ratio NANOLUC/Firefly in lysates of neurons, 48 h after toxin) in assay [2] amounted to 2.9 pM. In assay [3], this substance returned an EC50 (percentage of luminescence of NANOLUC luciferase, after 4 h at 37 C) of 48.3 pM and an EC50 (percentage of luminescence of NANOLUC luciferase, after 24 h at 37 C) of 35.9 pM.

In assay [4], “Botulinum neurotoxin B (BoNT/B) (from UniProt P10844 2-1291) (enzyme)” returned an EC50 (percentage of luminescence of NANOLUC luciferase, after 4 h at 37 C) of 75.7 pM and an EC50 (percentage of luminescence of NANOLUC luciferase, after 24 h at 37 C) of 3.9 pM.

The values are drawn from patent US20190276873A1.
